# B1: Tyrosine-protein phosphatase non-receptor type 1 (Homo sapiens), P18031 (parent)
# chain: MEMEKEFEQIDKSGSWAAIYQDIRHEASDFPCRVAKLPKNKNRNRYRDVSPFDHSRIKLHQEDNDYINASLIKMEEAQRSYILTQGPLPNTCGHFWEMVWEQKSRGVVMLNRVMEKGSLKCAQYWPQKEEKEMIFEDTNLKLTLISEDIKSYYTVRQLELENLTTQETREILHFHYTTWPDFGVPESPASFLNFLFKVRESGSLSPEHGPVVVHCSAGIGRSGTFCLADTCLLLMDKRKDPSSVDIKKVLLEMRKFRMGLIQTADQLRFSYLAVIEGAKFIMGDSSVQDQWKELSHEDLEPPPEHIPPPPRPPKRILEPHNGKCREFFPNHQWVKEETQEDKDCPIKEEKGSPLNAAPYGIESMSQDTEVRSRVVGGSLRGAQAASPAKGEPSLPEKDEDHALSYWKPFLVNMCVATVLTAGAYLCYRFLFNSNT
# Variants of: B1
# Conditions: with cadh2_chick CDH2, P10288
# Sequence of cadh2_chick CDH2, P10288 (P10288 whole entry): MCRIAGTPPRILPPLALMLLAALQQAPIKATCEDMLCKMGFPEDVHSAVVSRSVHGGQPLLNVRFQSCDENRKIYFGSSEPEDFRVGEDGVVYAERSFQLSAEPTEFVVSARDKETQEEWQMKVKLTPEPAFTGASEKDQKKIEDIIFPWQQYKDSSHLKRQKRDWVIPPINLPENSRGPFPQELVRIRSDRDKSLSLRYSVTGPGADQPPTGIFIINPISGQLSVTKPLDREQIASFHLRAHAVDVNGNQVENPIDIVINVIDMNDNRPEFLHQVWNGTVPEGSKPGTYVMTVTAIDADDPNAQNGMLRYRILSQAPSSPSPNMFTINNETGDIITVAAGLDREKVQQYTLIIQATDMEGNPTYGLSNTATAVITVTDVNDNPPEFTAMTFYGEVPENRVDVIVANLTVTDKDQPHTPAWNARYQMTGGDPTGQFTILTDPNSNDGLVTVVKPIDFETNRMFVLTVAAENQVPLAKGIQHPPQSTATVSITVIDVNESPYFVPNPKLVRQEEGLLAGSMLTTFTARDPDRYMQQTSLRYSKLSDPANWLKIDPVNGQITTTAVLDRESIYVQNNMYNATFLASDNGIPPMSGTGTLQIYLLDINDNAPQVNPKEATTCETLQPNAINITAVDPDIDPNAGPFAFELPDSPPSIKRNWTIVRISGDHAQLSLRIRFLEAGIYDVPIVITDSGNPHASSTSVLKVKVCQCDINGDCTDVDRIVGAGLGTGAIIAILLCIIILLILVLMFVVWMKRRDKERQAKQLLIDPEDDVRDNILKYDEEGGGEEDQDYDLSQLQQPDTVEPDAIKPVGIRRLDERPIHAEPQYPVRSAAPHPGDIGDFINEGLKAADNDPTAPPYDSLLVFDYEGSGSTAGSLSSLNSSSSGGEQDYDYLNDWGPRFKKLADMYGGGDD
row,Variant,effect of a mutation on the interaction
1,Y66F;Y152F;Y153F,decreasing interaction
2,Y66F;Y152F,decreasing interaction
3,Y66F,increasing interaction
4,Y153F,increasing interaction
5,Y66F;Y153F,increasing interaction
6,Y152F,decreasing interaction
7,C215S,increasing interaction

# Variants of: B1
# Conditions: with cadh2_mouse Cdh2, P15116
# Sequence of cadh2_mouse Cdh2, P15116 (P15116 whole entry): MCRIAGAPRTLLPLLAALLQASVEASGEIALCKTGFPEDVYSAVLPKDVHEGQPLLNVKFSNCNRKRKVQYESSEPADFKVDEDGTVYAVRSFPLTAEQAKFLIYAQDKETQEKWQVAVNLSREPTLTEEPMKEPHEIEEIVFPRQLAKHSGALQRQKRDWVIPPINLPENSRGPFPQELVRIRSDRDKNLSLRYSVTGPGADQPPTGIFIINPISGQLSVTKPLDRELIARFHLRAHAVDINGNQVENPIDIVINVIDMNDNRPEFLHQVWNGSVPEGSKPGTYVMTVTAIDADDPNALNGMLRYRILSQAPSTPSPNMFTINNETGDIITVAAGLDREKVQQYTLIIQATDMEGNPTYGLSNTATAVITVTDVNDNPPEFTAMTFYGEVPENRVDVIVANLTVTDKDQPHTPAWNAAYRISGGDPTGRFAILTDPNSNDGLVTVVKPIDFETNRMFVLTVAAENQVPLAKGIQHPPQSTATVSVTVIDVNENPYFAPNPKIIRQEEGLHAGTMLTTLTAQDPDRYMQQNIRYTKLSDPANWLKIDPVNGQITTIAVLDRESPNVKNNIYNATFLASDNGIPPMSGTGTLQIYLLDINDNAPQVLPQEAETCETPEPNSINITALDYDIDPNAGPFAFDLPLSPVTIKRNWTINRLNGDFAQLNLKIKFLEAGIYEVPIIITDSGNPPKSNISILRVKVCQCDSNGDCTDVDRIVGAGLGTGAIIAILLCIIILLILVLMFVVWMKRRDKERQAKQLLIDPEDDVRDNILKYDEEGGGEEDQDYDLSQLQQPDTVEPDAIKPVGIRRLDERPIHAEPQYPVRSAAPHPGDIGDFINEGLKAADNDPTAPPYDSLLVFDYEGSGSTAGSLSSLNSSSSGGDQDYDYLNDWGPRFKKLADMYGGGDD
row,Variant,effect of a mutation on the interaction
1,Y152F,disrupting interaction

# Variants of: B1
# Conditions: with cadh2_mouse Cdh2, P15116
# Remark: another data set of the same source
row,Variant,effect of a mutation on the interaction
1,C215S,disrupting interaction strength

# From IntAct's records for PubMed 11106648
